# T1: 7-DMATS (Aspergillus fumigatus, UniProt Q4WYG3)
# T1 construct: gene etpPT; 7-DMATS-His6 (C-terminal tag kept), plasmid pLW40, expressed in E. coli, Ni-NTA purified
# T1 sequence (Q4WYG3 1-472): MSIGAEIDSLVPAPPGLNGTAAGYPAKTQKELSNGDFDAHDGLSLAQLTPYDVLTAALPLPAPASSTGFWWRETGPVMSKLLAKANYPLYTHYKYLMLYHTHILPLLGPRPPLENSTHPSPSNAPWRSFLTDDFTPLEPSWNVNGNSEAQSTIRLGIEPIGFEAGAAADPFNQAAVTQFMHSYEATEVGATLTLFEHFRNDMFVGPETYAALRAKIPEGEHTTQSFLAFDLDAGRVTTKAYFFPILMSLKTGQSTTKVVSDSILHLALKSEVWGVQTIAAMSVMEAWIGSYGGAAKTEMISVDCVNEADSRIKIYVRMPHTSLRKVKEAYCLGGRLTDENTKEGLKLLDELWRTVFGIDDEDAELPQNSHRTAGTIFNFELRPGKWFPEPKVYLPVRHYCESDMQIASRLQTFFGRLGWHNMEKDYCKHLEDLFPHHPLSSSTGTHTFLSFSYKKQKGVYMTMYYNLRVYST
# T2: 6-DMATSSa (Streptomyces ambofaciens, UniProt A3KIV6)
# T2 construct: gene SAM23877_0730; 6-DMATSSa-His6 (C-terminal tag kept), plasmid pJW12, expressed in E. coli, Ni-NTA purified
# T2 sequence (A3KIV6 1-375): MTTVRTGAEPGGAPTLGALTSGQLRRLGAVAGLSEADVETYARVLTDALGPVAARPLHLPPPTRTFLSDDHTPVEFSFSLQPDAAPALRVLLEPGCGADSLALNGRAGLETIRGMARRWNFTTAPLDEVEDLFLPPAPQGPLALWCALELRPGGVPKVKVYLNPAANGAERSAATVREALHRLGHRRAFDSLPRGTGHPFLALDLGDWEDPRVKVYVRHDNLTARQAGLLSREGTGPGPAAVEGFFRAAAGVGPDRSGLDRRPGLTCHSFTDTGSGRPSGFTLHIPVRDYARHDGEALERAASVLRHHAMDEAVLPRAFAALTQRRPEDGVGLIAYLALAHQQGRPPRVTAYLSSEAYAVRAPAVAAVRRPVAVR
# B1: EchPT1 (Aspergillus ruber) (protein)
# chain: MPSEVLTSYYDYPTHDQEAWWRDTGPLFGRFLKGAGYDVHTQYQYLVFFIKNILPSLGPYPARWRSTITPTGLPIEYSLNFQLNSRPLLRIGFEPLSRFSGTPQDPYNKIAAADLLNQLSKLQLHEFDTQLFNHFTNEFELSKSESESLQKQGGINGKSTVRSQTAFGFDLKGGRVAVKGYAFAGLKNRATGTPVGQLISNSIRNLEPQMHCWDSFSILNSYMEESDGWNEYSFVSWDCVDIERSRLKLYGVHNAVTWDKVKEMWTLGGRIENNATIKTGLELLQHMWSLLQINEGDRDYKGGFAADNGGKTLPIIWNYELNKGSPHPAPKFYFPVHGENDLQVSKSISEFFTHLGWQDHARQYPHLLRQIYPNQNISQTERLQAWISFAYNERTGPYLSVYYYSAERPPWGSDQVK
# notes: His6-EchPT1 (N-terminal tag kept), plasmid pVW90, expressed in E. coli, Ni-NTA purified
# Assays:
# 7-DMATS = molecular target: T1, 7-DMATS; assay: LCMS prenylation assay, conversion yield; format: biochemical; conditions: 1 mM substrate; 1 mM DMAPP; 5 mM CaCl2; 4 µg protein in 50 µL; pH 7.5; 37 °C; 16 h; C6- and C7-prenylation
# 6-DMATSSa = molecular target: T2, 6-DMATSSa; assay: LCMS prenylation assay, conversion yield; format: biochemical; conditions: 1 mM substrate; 1 mM DMAPP; 5 mM CaCl2; 4 µg protein in 50 µL; pH 7.5; 37 °C; 16 h; C6-prenylation
# [1] = substrate: CC(C)=CCc1ccc2c(C[C@@H]3NC(=O)[C@@H]4CCCN4C3=O)c[nH]c2c1; assay: HPLC prenylation assay, Michaelis-Menten fit; format: biochemical, Aspergillus ruber; conditions: 1 mM DMAPP, pH 7.5, 37 °C, 30 min, N1-prenylation
# From the text: (§1) HPLC prenylation assay, Michaelis-Menten fit on EchPT1
# [2] = substrate: CC(C)=CCc1cccc2[nH]cc(C[C@@H]3NC(=O)[C@@H]4CCCN4C3=O)c12; assay: HPLC prenylation assay, Michaelis-Menten fit; format: biochemical, Aspergillus ruber; conditions: 1 mM DMAPP, pH 7.5, 37 °C, 30 min
# From the text: as §1
# [3] = substrate: CC(C)=CCc1ccc2[nH]cc(C[C@@H]3NC(=O)[C@@H]4CCCN4C3=O)c2c1; assay: HPLC prenylation assay, Michaelis-Menten fit; format: biochemical, Aspergillus ruber; conditions: 1 mM DMAPP, pH 7.5, 37 °C, 35 min
# From the text: as §1
# [4] = substrate: CC(C)=CCOP(=O)(O)OP(=O)(O)O; assay: HPLC prenylation assay, Michaelis-Menten fit; format: biochemical, Aspergillus ruber; conditions: 1 mM C4-prenylated cyclo-L-Trp-L-Pro (3), 5 mM CaCl2, pH 7.5, 37 °C, 30 min
# From the text: as §1
Molecule,conversion yield (7-DMATS),conversion yield (6-DMATSSa),Km [1],kcat [1],kcat/Km [1],Km [2],kcat [2],kcat/Km [2],Km [3],kcat [3],kcat/Km [3],Km [4],kcat [4],kcat/Km [4]
"O=C1N[C@@H](Cc2c[nH]c3ccccc23)C(=O)N2CCC[C@@H]12 [compound 1, cyclo-L-Trp-L-Pro]",11.6 ± 1.4%,29.9 ± 0.6%,,,,,,,,,,,,
B1,,,50 ± 7 µM,0.007 ± 0.0004 s⁻¹,140 M⁻¹ s⁻¹,60 ± 10 µM,0.21 ± 0.02 s⁻¹,3500 M⁻¹ s⁻¹,80 ± 20 µM,0.03 ± 0.004 s⁻¹,375 M⁻¹ s⁻¹,100 ± 10 µM,0.25 ± 0.02 s⁻¹,2500 M⁻¹ s⁻¹
